From US20220227829A1 (SHANGHAI GP BIOTECH, published 2022)
Numbering of substitutions follows the chain as printed. Names may count otherwise.

B1: IL-2gm6 (T3A, M39N, K49N, A73T, D109N), HIS tag (ligand)
chain: APASSSTKKTQLQLEHLLLDLQMILNGINNYKNPKLTRNLTFKFYMPKNATELKHLQCLEEELKPLEEVLNLTQSKNFHLRPRDLISNINVIVLELKGSETTFMCEYANETATIVEFLNRWITFAQSIISTLTHHHHHH
notes: Expressed in Expi293F cells; also called IL-2gm6-His
B2: IL-2gm1 (T3A, M39N), HIS tag (ligand)
chain: B1 chain with N49K, T73A, N109D
notes: Expressed in Expi293F cells with a leader peptide; M39N is meant to make an N-glycosylation site; also called IL-2gm1-His
B3: IL-2gm5 (T3A, M39N, K49N, A73T), HIS tag (ligand)
chain: B1 chain with N109D
notes: Expressed in Expi293F cells; also called IL-2gm5-His
B4: IL-2gm8 (T3A, M39N, K49N), HIS tag (ligand)
chain: B1 chain with T73A, N109D
notes: Expressed in Expi293F cells; also called IL-2gm8-His
B5: IL-2gm9 (T3A, M39N, A73T), HIS tag (ligand)
chain: B1 chain with N49K, N109D
notes: Expressed in Expi293F cells; also called IL-2gm9-His
B6: IL-2gm10 (T3A, M39N, D109N), HIS tag (ligand)
chain: B1 chain with N49K, T73A
notes: Expressed in Expi293F cells; also called IL-2gm10-His
B7: IL-2gm14 (T3A, M39N, A73T, D109N), HIS tag (ligand)
chain: B1 chain with N49K
notes: Expressed in Expi293F cells; also called IL-2gm14-His
B8: IL-2gm15 (T3A, M39N, K49N, D109N), HIS tag (ligand)
chain: B1 chain with T73A
notes: Expressed in Expi293F cells; also called IL-2gm15-His
B9: IL-2gm4 (T3A, K49N, A73T), IgG1-Fc tag (Fc fusion)
chain: APASSSTKKTQLQLEHLLLDLQMILNGINNYKNPKLTRMLTFKFYMPKNATELKHLQCLEEELKPLEEVLNLTQSKNFHLRPRDLISNINVIVLELKGSETTFMCEYADETATIVEFLNRWITFAQSIISTLTGGGSGGGSGGGSGGGSEPKSSDKTHTSPPSPAPELEGGSSVFLFPPKPKDTLMISRTPEVTCVVVDVSHEDPEVKFNWYVDGVEVHNAKTKPREEQYASTYRVVSVLTVLHQDWLNGKAYACAVSNKALPAPIEKTISKAKGQPREPQVYTLPPSREEMTKNQVSLTCLVKGFYPSDIAVEWESNGQPENNYKTTPPVLDSDGSFFLYSKLTVDKSRWQQGNVFSCSVMHEALHNHYTQKSLSLSPGK
B10: IL-2gm2 (T3A, K49N), HIS tag (ligand)
chain: B1 chain with N39M, T73A, N109D
notes: Expressed in Expi293F cells; also called IL-2gm2-His
B11: IL-2gm3 (T3A, A73T) or (T3A, A73S), HIS tag (ligand)
chain: B1 chain with N39M, N49K, N109D
notes: also called IL-2gm3-His
B12: IL-2gm4 (T3A, K49N, A73T), HIS tag (ligand)
chain: B1 chain with N39M, N109D
notes: Expressed in Expi293F cells; also called IL-2gm4-His
B13: IL-2gm7 (T3A, D109N), HIS tag (ligand)
chain: B1 chain with N39M, N49K, T73A
notes: Expressed in Expi293F cells; also called IL-2gm7-His
B14: IL-2gm11 (T3A, K49N, D109N), HIS tag (ligand)
chain: B1 chain with N39M, T73A
notes: Expressed in Expi293F cells; also called IL-2gm11-His
B15: IL-2gm12 (T3A, A73T, D109N), HIS tag (ligand)
chain: B1 chain with N39M, N49K
notes: Expressed in Expi293F cells; also called IL-2gm12-His
B16: IL-2gm13 (T3A, K49N, A73T, D109N), HIS tag (ligand)
chain: B1 chain with N39M
notes: Expressed in Expi293F cells; also called IL-2gm13-His

Target: T1, CD25 protein (from Example 2)
T1 chain: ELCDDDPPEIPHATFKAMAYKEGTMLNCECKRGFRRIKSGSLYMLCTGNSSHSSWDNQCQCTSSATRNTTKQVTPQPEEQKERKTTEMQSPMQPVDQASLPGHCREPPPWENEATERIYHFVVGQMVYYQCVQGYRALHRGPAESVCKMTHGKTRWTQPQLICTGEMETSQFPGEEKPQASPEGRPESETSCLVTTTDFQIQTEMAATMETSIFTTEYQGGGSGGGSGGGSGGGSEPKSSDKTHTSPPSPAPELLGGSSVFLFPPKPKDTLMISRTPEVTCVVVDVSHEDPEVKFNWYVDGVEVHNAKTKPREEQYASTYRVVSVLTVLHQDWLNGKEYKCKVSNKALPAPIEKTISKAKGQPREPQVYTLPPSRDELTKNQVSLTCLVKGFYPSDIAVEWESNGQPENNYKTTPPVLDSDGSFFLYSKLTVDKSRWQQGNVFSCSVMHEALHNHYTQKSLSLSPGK
Experiment: ELISA on coated CD25
Procedure: (§1) CD25 (from Example 2) was coated on a 96-well high adsorption microtiter plate (3590, Costar), washed and blocked. The sample to be tested was diluted to an appropriate concentration and added to wells.

Binder | binding result
B1 | no binding (tested: 1 ug/ml)
B2 | no binding (tested: 1 ug/ml)
B3 | no binding (tested: 1 ug/ml)
B4 | no binding (tested: 1 ug/ml)
B5 | no binding (tested: 1 ug/ml)
B6 | no binding (tested: 1 ug/ml)
B7 | no binding (tested: 1 ug/ml)
B8 | no binding (tested: 1 ug/ml)

Target: T2, CD25 on the surface of CTLL-2 cells (mouse cytotoxic T lymphocyte cell line) (mouse) (UniProt P01590)
T2 sequence (looked up): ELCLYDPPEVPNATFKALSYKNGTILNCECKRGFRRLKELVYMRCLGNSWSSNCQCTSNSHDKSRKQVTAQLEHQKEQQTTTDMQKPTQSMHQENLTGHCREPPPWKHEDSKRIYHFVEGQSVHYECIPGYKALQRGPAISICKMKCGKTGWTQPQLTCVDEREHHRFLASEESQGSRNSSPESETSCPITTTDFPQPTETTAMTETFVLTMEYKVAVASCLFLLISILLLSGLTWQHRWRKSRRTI
Experiment: cell-based or functional assay

Binder | EC50 (nM), CTLL-2 cell proliferation [nM] | Potency relative to rhIL-2 (%), CTLL-2 cell proliferation [%]
B9 | 0.00919 | 31.5

Target: CD25 on the surface of NK92 cells (human NK cell line) (human) (UniProt P01589)
Experiment: cell-based or functional assay

Binder | EC50 (nM), NK92 cell proliferation [nM] | Potency relative to rhIL-2 (%), NK92 cell proliferation [%]
B9 | 0.0152 | 34.8

Target: T3, CD25 on the surface of CTLL-2 cells (mouse cytotoxic T lymphocyte cell line) (mouse, UniProt P01590 22-268)
T3 sequence (looked up): T2 sequence (looked up)
Experiment: cell-based or functional assay

Binder | EC50 (nM), CTLL-2 cell proliferation [nM] | Potency relative to rhIL-2 (%), CTLL-2 cell proliferation [%]
B1 | 51.5 | 0.006
B2 | 83.4 | 0.003
B10 | 0.0638 | 4.55
B11 | 0.165 | 1.76
B12 | 0.0906 | 3.2
B3 | 8.22 | 0.035
B13 | 0.365 | 0.794
B4 | 8.84 | 0.033
B5 | 2.38 | 0.122
B6 | 15.6 | 0.019
B14 | 0.0349 | 8.31
B15 | 0.156 | 1.86
B16 | 0.144 | 2.01
B7 | 47.9 | 0.006
B8 | 16.5 | 0.018

Target: T1, CD25 protein (from Example 2)
Experiment: ELISA on coated CD25, sample at 0.04 ug/ml, relative to rhIL-2 = 100%
Procedure: as §1

Binder | Binding activity (%)
B1 | 1.36
B2 | 1.66
B10 | 16.6
B11 | 2.27
B12 | 3.18
B3 | 1.51
B13 | 1.82
B4 | 1.51
B5 | 1.51
B6 | 1.51
B14 | 2.42
B15 | 1.97
B16 | 1.51
B7 | 1.51
B8 | 1.36

Target: T4, CD25 on the surface of NK92 cells (human NK cell line) (human, UniProt P01589 22-272)
T4 sequence (looked up): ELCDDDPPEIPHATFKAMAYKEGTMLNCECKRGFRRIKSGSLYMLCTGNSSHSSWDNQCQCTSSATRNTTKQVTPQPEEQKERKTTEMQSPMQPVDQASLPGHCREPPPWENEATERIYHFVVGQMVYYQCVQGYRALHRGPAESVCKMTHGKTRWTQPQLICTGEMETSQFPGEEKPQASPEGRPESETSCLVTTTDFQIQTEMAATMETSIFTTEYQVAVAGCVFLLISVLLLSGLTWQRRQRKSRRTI
Experiment: cell-based or functional assay

Binder | EC50 (nM), NK92 cell proliferation [nM] | Potency relative to rhIL-2 (%), NK92 cell proliferation [%]
B1 | 7.08 | 0.027
B2 | 38.5 | 0.005
B10 | 0.112 | 1.72
B11 | 2.21 | 0.088
B12 | 0.234 | 0.828
B3 | 20.7 | 0.009
B13 | 0.557 | 0.347
B4 | 8.91 | 0.022
B5 | 1.07 | 0.181
B6 | 12.7 | 0.015
B14 | 0.28 | 0.69
B15 | 0.296 | 0.653
B16 | 0.293 | 0.661
B7 | 23.2 | 0.008
B8 | 7.76 | 0.025

Target: T1, CD25 protein (from Example 2)
Experiment: ELISA on coated CD25, sample at 0.2 ug/ml, relative to rhIL-2 = 100%
Procedure: as §1

Binder | Binding activity (%)
B1 | 1.08
B2 | 1.08
B10 | 31.3
B11 | 5.62
B12 | 7.5
B3 | 1.08
B13 | 2.96
B4 | 0.99
B5 | 1.18
B6 | 1.08
B14 | 5.03
B15 | 1.48
B16 | 1.18
B7 | 0.99
B8 | 0.99

Target: T1, CD25 protein (from Example 2)
Experiment: ELISA on coated CD25, sample at 1 ug/ml, relative to rhIL-2 = 100%
Procedure: as §1

Binder | Binding activity (%)
B1 | 0.88
B2 | 0.88
B10 | 31
B11 | 10.3
B12 | 14.8
B3 | 0.88
B13 | 8.1
B4 | 0.74
B5 | 0.88
B6 | 0.88
B14 | 12.5
B15 | 2.77
B16 | 2.23
B7 | 0.74
B8 | 0.68
